How the values were obtained:
[1] = target: recombinant Human Pyruvate Dehydrogenase E1-alpha subunit protein (Abcam) (UniProt P08559)
[2] = system: purified recombinant His-tagged PDK1 (Abcam)
purified recombinant His-tagged PDK1 (Abcam), sequence (chain, as listed by the source): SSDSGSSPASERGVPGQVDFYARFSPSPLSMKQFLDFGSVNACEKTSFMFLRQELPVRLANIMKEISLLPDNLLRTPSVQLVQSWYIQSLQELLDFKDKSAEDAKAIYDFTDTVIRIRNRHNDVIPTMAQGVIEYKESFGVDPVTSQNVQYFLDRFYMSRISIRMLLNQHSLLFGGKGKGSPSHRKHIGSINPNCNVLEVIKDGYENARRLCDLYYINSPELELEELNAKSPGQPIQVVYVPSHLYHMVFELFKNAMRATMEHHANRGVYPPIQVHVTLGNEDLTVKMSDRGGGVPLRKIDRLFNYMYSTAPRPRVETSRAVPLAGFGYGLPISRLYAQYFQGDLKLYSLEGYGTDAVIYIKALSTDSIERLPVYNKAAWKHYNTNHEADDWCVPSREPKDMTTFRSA

recombinant Human Pyruvate Dehydrogenase E1-alpha subunit protein (Abcam), sequence (P08559 30-390): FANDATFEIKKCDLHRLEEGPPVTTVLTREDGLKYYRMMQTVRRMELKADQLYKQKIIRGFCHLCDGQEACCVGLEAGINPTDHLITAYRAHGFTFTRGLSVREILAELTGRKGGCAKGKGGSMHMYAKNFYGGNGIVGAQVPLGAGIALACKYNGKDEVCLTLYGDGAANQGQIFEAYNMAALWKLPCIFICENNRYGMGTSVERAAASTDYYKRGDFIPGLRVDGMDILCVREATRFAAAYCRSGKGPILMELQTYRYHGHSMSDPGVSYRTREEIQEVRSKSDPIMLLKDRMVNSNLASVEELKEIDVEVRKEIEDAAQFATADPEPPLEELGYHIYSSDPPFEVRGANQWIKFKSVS
Flag-tagged T346A PDK1 mutant, sequence (chain, as listed by the source T346A): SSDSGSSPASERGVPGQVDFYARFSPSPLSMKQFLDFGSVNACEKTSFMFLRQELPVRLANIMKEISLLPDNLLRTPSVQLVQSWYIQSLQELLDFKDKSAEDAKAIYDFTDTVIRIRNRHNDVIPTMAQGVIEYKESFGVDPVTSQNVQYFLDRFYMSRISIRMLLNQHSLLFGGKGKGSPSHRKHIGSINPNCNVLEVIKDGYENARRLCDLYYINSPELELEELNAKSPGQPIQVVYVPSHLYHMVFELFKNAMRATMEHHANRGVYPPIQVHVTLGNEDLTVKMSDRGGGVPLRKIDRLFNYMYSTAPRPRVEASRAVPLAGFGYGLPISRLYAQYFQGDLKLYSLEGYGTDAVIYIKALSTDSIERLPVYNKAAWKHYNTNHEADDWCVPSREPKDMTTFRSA
purified recombinant His-tagged PDK4 (Abcam), sequence (chain, as listed by the source): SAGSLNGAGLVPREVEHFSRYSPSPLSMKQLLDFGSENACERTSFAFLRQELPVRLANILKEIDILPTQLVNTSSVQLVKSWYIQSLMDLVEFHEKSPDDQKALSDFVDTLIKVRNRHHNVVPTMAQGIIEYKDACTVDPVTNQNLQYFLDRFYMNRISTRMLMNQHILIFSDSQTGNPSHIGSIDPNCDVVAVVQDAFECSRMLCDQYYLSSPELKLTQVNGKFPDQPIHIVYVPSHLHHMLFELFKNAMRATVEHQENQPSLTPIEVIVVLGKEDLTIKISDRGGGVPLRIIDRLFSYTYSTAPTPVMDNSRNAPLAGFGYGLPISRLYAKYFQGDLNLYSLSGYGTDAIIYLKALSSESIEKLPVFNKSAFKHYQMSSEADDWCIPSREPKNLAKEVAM

## Flag-tagged T346A PDK1 mutant
[1]
  PDHE1 phosphorylation by Flag immune complexes mixed with recombinant Akt2 and PDHE1, Western blotting: T346A PDK1 mutant was ineffective

## Flag-tagged wild type (WT) PDK1 phosphorylated on T346 (by active Akt2 in a kinase assay, or as precipitated from hypoxic PC3 cells)
[1]
  PDHE1 phosphorylation by Flag immune complexes mixed with recombinant Akt2 and PDHE1, Western blotting: WT PDK1 phosphorylated PDHE1 in the presence of Akt2

## kinase active Akt1 (SignalChem)
[2]
  phosphorylation in a kinase assay, Western blotting with Akt cons Ab: active Akt1 or Akt2 readily phosphorylated PDK1
  phosphorylation site by LC-MS/MS of chymotrypsin digests after a kinase assay: Thr346 (T346) was identified ... as the sole phospho-amino acid modified by Akt1 or Akt2, compared to control

## purified recombinant His-tagged PDK1 (Abcam)
[1]
  PDHE1 phosphorylation in a kinase assay with recombinant proteins, Western blotting: active Akt2 increased PDK1 phosphorylation of PDHE1

## purified recombinant His-tagged PDK2 (Abcam)
[1]
  PDHE1 phosphorylation in a kinase assay with active Akt2, Western blotting: increased PDHE1 phosphorylation was detected only in the presence of Akt2 and PDK1, but not PDK2, PDK3 or PDK4

## purified recombinant His-tagged PDK3 (Abcam)
[1]
  PDHE1 phosphorylation in a kinase assay with active Akt2, Western blotting: increased PDHE1 phosphorylation was detected only in the presence of Akt2 and PDK1, but not PDK2, PDK3 or PDK4

## purified recombinant His-tagged PDK4 (Abcam)
[1]
  PDHE1 phosphorylation in a kinase assay with active Akt2, Western blotting: increased PDHE1 phosphorylation was detected only in the presence of Akt2 and PDK1, but not PDK2, PDK3 or PDK4
